Experimental findings from the Immune Epitope Database (IEDB) are described below.

In general, IC50 refers to the point on the concentration scale where inhibition reaches its midpoint. Broadly, the Kd is the constant that tells how readily two partners part at equilibrium.

For experiment [1], the target named is HLA-B*57:01. Description: IEDB peptide-MHC binding, purified MHC/competitive/radioactivity; ≥ and ≤ were set here for values at or beyond the usual limits of such assays.
For experiment [2], the target named is HLA-B*57:01. Description: IEDB peptide-MHC binding, purified MHC/competitive/radioactivity; filed as Kd, often an IC50 or EC50 that approximates it; ≥ and ≤ were set here for values at or beyond the usual limits of such assays.
Where [3] appears, read: source organism: Mammarenavirus choriomeningitidis.
[4] abbreviates: source organism: Human immunodeficiency virus 2.
The mark [5] stands for this setting: source organism: Simian immunodeficiency virus.

Regarding ATCGIFALI, in the experiment with HLA-B*57:01 [1] (setting [3]), the IC50 came to 0.2 µM.

For the sequence ATIKLQSTV, the IC50 with HLA-B*57:01 [1] (source organism: Homo sapiens) was 0.1 µM.

On to IVSSLHLSI, for which the IC50 with HLA-B*57:01 [1] (setting [3]) stood at 1 µM.

For the sequence KIYEGQVEV, the IC50 in the experiment with HLA-B*57:01 [1] (source organism: Homo sapiens) was 10 µM.

Regarding KSNGTIIHV, in the experiment with HLA-B*57:01 [1] (source organism: Homo sapiens), the IC50 was determined as 10 µM.

Consider KVAKVEPAV, for which, in the experiment with HLA-B*57:01 [2] (source organism: Homo sapiens), the equilibrium dissociation constant (Kd) was at least 70 µM.

Turning to KVGWAWWTC, in the experiment with HLA-B*57:01 [1] (setting [4]), the IC50 is 3 µM.

As to LKSLYNTVC, the Kd in the experiment with HLA-B*57:01 [2] (setting [5]) is at least 30 µM.

For LLHSTYFPC, the dissociation constant (Kd) with HLA-B*57:01 [2] (setting [5]) is at least 50 µM.

In the case of MFEALPHII, the Kd with HLA-B*57:01 [2] (setting [3]) is at least 50 µM.

In the case of MYGLKGPDI, the Kd in the experiment with HLA-B*57:01 [2] (setting [3]) was at least 50 µM.

In the case of QAQLNAWGC, the Kd with HLA-B*57:01 [2] (setting [5]) was at least 40 µM.

Regarding RARQLNYTI, the IC50 with HLA-B*57:01 [1] (source organism: Homo sapiens) turned out to be 0.0137 µM.

Turning to RTFHHGVRV, the IC50 with HLA-B*57:01 [1] (source organism: Homo sapiens) came out at 0.2 µM.

In the case of RVAGIHKKV, the dissociation constant (Kd) with HLA-B*57:01 [2] (source organism: Homo sapiens) is at least 70 µM.

Turning to SIFLHLVKI, in the experiment with HLA-B*57:01 [1] (setting [3]), the IC50 was found to be 0.5 µM.

For SSCIAQDNC, the Kd with HLA-B*57:01 [2] (setting [5]) is at least 50 µM.

Turning to TVAPFNPTV, in the experiment with HLA-B*57:01 [1] (source organism: Homo sapiens), the IC50 came out at 1 µM.

Take VTTDIQVKV: in the experiment with HLA-B*57:01 [1] (source organism: Homo sapiens), the IC50 was determined as 2 µM.

Turning to WIQLGLQKC, in the experiment with HLA-B*57:01 [2] (setting [4]), the Kd was at least 10 µM.
